This note sets out measurements from publication PMC10899789, “Flexible structural arrangement and DNA-binding properties of protein p6 from Bacillus subtillis phage φ29” (Nucleic Acids Research, 2024).

The data set concerns the molecule itself. Briefly: AUC; sedimentation velocity, protein alone, 48 000 rpm, 20°C, 50 mM Tris-HCl pH 7.5, 10 mM MgCl2, 50 mM NaCl; 2.5-320 μM protein; isotherms of weight-average sedimentation coefficients fitted to a monomer-dimer self-association model (SEDPHAT); dimer to monomers.

B1: Full-length protein p6 (wt) of Bacillus subtilis bacteriophage φ29 (natural protein, UniProt P03685 1-104, looked up)
chain: MAKMMQREITKTTVNVAKMVMVDGEVQVEQLPSETFVGNLTMEQAQWRMKRKYKGEPVQVVSVEPNTEVYELPVEKFLEVATVRVEKDEDQEEQTEAPEEQVAE
notes: numbers count on: the traditional numbering of φ29 p6, where the second residue (Ala) is position 1 because the initial Met is removed in vivo; about 11.8 kDa as printed; also called wt p6; φ29 protein p6; source: produced and purified as previously described (23)
In the case of B1, binding was characterised by a dissociation constant (Kd) of 11.4 µM. This counts as double-digit micromolar.

B2: p6CΔ20 (residues 1–83), C-terminal deletion mutant of φ29 protein p6 (domain or fragment)
chain: AKMMQREITKTTVNVAKMVMVDGEVQVEQLPSETFVGNLTMEQAQWRMKRKYKGEPVQVVSVEPNTEVYELPVEKFLEVATVR
In turn, B2 displayed a Kd of 47 µM. Against the preceding protein, the Kd is about 4.1-fold higher.

Usually Kd stands for the constant that tells how readily two partners part at equilibrium.
